Square brackets hold non-standard residues; d marks the D form. Ends that are not written are not given here. deamidated = deamidated asparagine; Met(O) = CS(=O)CC[C@H](N)C(=O)O
Each substance was assayed against T1, mouse ADAMTS7 (Mus musculus, UniProt Q68SA9, E373Q) (assay: TMT10 TAILS N-terminomics, SMC1 experiment (Ad-mADAMTS7 WT vs EQ vs Luc, technical replicates, trypsin digest)). Details: TAILS neo-N-terminal peptide abundance; log fold change, Ad-mADAMTS7 EQ over Luc.
T1 construct: Full-length mouse Adamts7 1-1857 (Uniprot Q68SA9, WT or E373Q catalytic mutant); expressed in transfected cells; host or cells: Human Coronary Artery Smooth Muscle Cells (HCA-SMC, Lonza), adenovirus 50 MOI
T1 sequence (Q68SA9 221-1657 E373Q): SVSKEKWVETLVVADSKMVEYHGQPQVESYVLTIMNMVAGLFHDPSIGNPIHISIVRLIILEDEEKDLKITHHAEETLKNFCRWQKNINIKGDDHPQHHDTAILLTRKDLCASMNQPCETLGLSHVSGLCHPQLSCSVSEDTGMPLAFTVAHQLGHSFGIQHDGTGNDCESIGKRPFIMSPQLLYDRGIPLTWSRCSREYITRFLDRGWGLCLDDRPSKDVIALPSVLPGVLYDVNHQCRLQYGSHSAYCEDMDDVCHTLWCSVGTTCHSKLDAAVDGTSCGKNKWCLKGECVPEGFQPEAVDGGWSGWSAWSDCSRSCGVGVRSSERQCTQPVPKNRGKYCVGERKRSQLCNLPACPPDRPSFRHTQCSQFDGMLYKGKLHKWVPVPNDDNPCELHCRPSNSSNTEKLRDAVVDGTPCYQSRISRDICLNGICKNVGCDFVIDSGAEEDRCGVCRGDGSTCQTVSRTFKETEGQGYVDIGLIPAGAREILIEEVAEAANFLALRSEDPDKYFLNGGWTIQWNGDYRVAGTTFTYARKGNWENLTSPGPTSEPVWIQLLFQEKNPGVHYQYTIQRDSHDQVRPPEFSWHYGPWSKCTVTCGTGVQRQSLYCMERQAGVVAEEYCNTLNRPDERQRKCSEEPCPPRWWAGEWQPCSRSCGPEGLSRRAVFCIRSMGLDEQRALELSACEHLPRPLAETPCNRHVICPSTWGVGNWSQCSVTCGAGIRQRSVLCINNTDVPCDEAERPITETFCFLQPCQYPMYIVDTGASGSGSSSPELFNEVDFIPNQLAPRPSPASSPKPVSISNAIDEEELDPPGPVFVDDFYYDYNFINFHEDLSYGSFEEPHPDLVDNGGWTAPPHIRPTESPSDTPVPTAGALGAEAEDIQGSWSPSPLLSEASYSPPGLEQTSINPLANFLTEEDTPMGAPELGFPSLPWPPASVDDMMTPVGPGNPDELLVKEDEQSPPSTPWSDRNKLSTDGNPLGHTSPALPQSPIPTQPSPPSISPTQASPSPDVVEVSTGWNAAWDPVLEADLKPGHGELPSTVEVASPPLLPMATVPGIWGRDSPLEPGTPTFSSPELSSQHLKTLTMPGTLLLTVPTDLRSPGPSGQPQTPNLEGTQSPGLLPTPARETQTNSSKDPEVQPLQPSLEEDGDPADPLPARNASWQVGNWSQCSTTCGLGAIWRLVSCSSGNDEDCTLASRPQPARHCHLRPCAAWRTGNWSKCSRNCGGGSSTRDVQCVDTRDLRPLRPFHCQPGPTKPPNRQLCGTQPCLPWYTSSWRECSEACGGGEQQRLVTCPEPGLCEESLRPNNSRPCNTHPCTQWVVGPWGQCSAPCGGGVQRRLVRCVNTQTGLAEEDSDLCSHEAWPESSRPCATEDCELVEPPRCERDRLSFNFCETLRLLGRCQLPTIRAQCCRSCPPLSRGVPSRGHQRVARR
Type: cell-based
Summary of the method: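 Full-length mouse ADAMTS7 (WT or E373Q mutant, C-terminal 3xFLAG) or luciferase was transduced via adenovirus, 50 MOI, into HCA-SMC (SMC1, SMC2) or HUVEC. SMC1: pooled media, technical triplicates 400 ug; SMC2: process triplicates 300 ug; HUVEC: process triplicates 200 ug, bFGF2 10 ng/ml.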

Row | logFC.mEQ.over.Luc | Substance
1 | −0.12 | CDC37_43 (FQKEKEELDR; listed as Homo sapiens)
2 | −0.03 | CDH11_467 (HQEAKVPVAIR; listed as Homo sapiens)
3 | −0.34 | CLEC11A_50 (HLQEALGLPAGR; listed as Homo sapiens)
4 | 0.19 | COL1A2_80 (QYDGKGVGLGPGPMGLMGPR; listed as Homo sapiens)
5 | −0.07 | COL1A2_91 (GPMGLMGPR; listed as Homo sapiens)
6 | −0.61 | COL1A2_113 (FQGPAGEPGEPGQTGPAGAR; listed as Homo sapiens)
7 | 0.70 | COL1A2_270 (VGNAGPAGPAGPR; listed as Homo sapiens)
8 | −0.16 | COL1A2_305 (LTGAKGAAGLPGVAGAPGLPGPR; listed as Homo sapiens)
9 | 0.39 | COL1A2_389 (SAGPPGPPGLR; listed as Homo sapiens)
10 | −0.17 | COL1A2_425 (ASGPAGVR; listed as Homo sapiens)
11 | −0.27 | COL1A2_630 (VGTAGPSGPSGLPGER; listed as Homo sapiens)
12 | −0.34 | COL1A2_681 (VGAPGPAGATGDR; listed as Homo sapiens)
13 | −0.18 | COL1A2_731 (AAGQPGAKGER; listed as Homo sapiens)
14 | −0.24 | COL1A2_866 (LLGAPGILGLPGSR; listed as Homo sapiens)
15 | −0.35 | COL1A2_960 (AGAPGPHGPVGPAGKHGNR; listed as Homo sapiens)
16 | −0.28 | COL1A2_1028 (LQGLPGIAGHHGDQGAPGSVGPAGPR; listed as Homo sapiens)
17 | −0.79 | COL1A2_1037 (HHGDQGAPGSVGPAGPR; listed as Homo sapiens)
18 | −0.45 | COL1A2_1127 (SLRPKDYEVDATLKSLNNQIETLLTPEGSR; listed as Homo sapiens)
19 | −0.37 | COL4A2_71 (YNGPPGLQGFPGLQGR; listed as Homo sapiens)
20 | 0.76 | COL4A2_172 (YALPKEER; listed as Homo sapiens)
21 | −0.21 | COL5A1_544 (SQAQAILQQAR; listed as Homo sapiens)
22 | −0.25 | COL8A1_90 (MKEIQPAPR; listed as Homo sapiens)
23 | −0.01 | COL18A1_1505 (LQPPVVQLHDSNPYPR; listed as Homo sapiens)
24 | −0.04 | ECM1_43 (YAAPPSPPLSR; listed as Homo sapiens)
25 | 0.64 | LTBP2_1602 (EAGVHFR; listed as Homo sapiens)
26 | 0.18 | MAN2A1_51 (LQEKIDHLER; listed as Homo sapiens)

Row | logFC.mEQ.over.Luc | Substance
27 | −0.20 | MAP1B_1065 (LTTPTKQLGAQSPGR; listed as Homo sapiens)
28 | 0.10 | MAP4_815 (AVASTGPSSR; listed as Homo sapiens)
29 | −0.18 | MAP4_816 (VASTGPSSR; listed as Homo sapiens)
30 | −0.23 | MGAT4B_28 (LSGQKGDVVDVYQR; listed as Homo sapiens)
31 | −0.08 | MMP1_24 (LETQEQDVDLVQKYLEKYYNLKN(deamidated)DGR; listed as Homo sapiens)
32 | −0.08 | NID2_291 (HSSVPLGR; listed as Homo sapiens)
33 | −0.14 | NID2_374 (VGGPDLKGQVEPWDER; listed as Homo sapiens)
34 | −0.09 | NID2_467 (LEDNIGSNTEVFTYNAANKETCEHNHR; listed as Homo sapiens)
35 | −0.58 | NID2_951 (YAYPGAR; listed as Homo sapiens)
36 | 0.07 | NUCB1_228 (LKEVWEELDGLDPNR; listed as Homo sapiens)
37 | −0.11 | NUCB1_317 (FLASTQR; listed as Homo sapiens)
38 | 0.15 | NUCB1_389 (LQQAVLHMEQR; listed as Homo sapiens)
39 | −0.14 | OS9_54 ([code q]SQSSDVVIVSSKYKQR; also: modified N-terminal Gln; listed as Homo sapiens)
40 | −0.06 | OS9_55 (SQSSDVVIVSSKYKQR; listed as Homo sapiens)
41 | 0.35 | PAPPA_41 (AAGPATCATR; listed as Homo sapiens)
42 | −0.13 | PDLIM4_104 (IDPEIQDGSPTTSR; listed as Homo sapiens)
43 | 0.00 | POLR3G_88 (LFCSHWSHIPGFK; listed as Homo sapiens)
44 | −0.02 | POSTN_413 (FSDDTLSMDQR; listed as Homo sapiens)
45 | 0.10 | POSTN_754 (IITGPEIKYTR; listed as Homo sapiens)
46 | −0.31 | POSTN_790 (FIEGGDGHLFEDEEIKR; listed as Homo sapiens)
47 | −0.07 | POSTN_807 (LLQGDTPVR; listed as Homo sapiens)
48 | −0.08 | PPP1R18_295 (LSETLTR; listed as Homo sapiens)
49 | 0.10 | PSAP_171 (F[Met(O)]ANIPLLLYPQDGPR; listed as Homo sapiens)
50 | 1.36 | PXDN_1341 (SYQEDKPTKKTR; listed as Homo sapiens)
51 | 0.10 | PXDN_1393 (QKTITDLR; listed as Homo sapiens)

Reference: patent US20240368668A1, “SUBSTRATES AND BIOMARKERS OF ADAMTS7” (The Broad Institute, Inc., priority 2021, published 2024)
